Reference: patent publication US20220241413A1, “COMBINATION THERAPIES USING CD-38 ANTIBODIES” (Takeda Pharmaceutical Company Limited, priority 2019, published 2022)

Tests used:
[1] = system: plasmablasts in peripheral blood; assay: Phase 1 study in healthy subjects (AB79-101): plasmablast levels; type: in vivo, human; conditions: SC
Experimental: (§1) In a phase 1 study in healthy subjects (Study AB79-101), AB79 reduced the levels of peripheral blood and natural killer (NK) cells >90% from baseline in all subjects receiving a single 0.06 mg/kg IV dose of AB79, with a maximum observed concentration (Cmax) of 0.1 μg/mL. (U.S. Pat. No. 8,362,211; U.S. International Patent Application Serial Nos. PCT/US2019/013547 and PCT/US2019/024431). […] Potent reduction of plasmablasts was observed across cohorts of patients in the RRMM trial (Study AB79-1501). […] Consequently, AB79 may be more efficient at eliminating cells expressing high levels of CD38, which could manifest as higher activity on tumor cells (e.g., improved and deeper response rates across a population of patients with myeloma).
(§2) AB79 IV reduced the levels of peripheral blood NK cells >90% from baseline levels in all subjects receiving a single 0.06 mg/kg IV dose, with a Cmax of 0.1 μg/mL. […] As a potent and convenient second-generation anti-CD38 mAb, AB79 SC warranted therapeutic development for the treatment of multiple myeloma (MM).

[2] = Phase 1 study in healthy subjects (AB79-101): pharmacokinetics; type: in vivo, human; conditions: single 0.06 mg/kg IV dose
Experimental: as §1, §2

[3] = system: newly diagnosed multiple myeloma (NDMM); assay: AB79-1002 phase 1b study, AB79 with LenDex or VRd in NDMM: disease response; type: in vivo, human; conditions: total population including both backbone regimens, one patient pending
Text: This is a Phase 1b, open-label, multicenter study to evaluate the safety, efficacy, tolerability, and pharmacokinetics (PK) of AB79 when added to 1 of 2 standard backbone regimens (lenalidomide plus dexamethasone [LenDex] or bortezomib [Velcade] plus lenalidomide and dexamethasone [VRd]) in adult patients with newly diagnosed multiple myeloma (NDMM) for whom stem cell transplantation (SCT) is not planned as initial therapy. The dose and schedule for the backbone regimens (LenDex and VRd) are given in accordance with product labeling or standard medical practice. Treatment cycles are 28 days until disease progression (PD) or unacceptable toxicity occurs. Treatment may be discontinued for other reasons listed below. AB79 is supplied by the sponsor. Bortezomib, dexamethasone, and lenalidomide are standard-of-care agents that are supplied from commercial sources. […]
Efficacy assessment of tumor response and disease progression are conducted in accordance with IMWG criteria. […] Bone marrow examinations, skeletal surveys, computed tomography (CT) or magnetic resonance imaging ([…]) to evaluate lytic and/or extramedullary plasmacytomas, and serum calcium corrected for albumin are evaluated as necessary based on patient's baseline disease status. […]

[4] = molecular target: human CD38 (Homo sapiens, UniProt P28907); assay: Biacore affinity to human CD38; type: binding
Text: Other Morphosys antibodies targeting CD38 are known (see, e.g., WO 2006/125640, which discloses four human antibodies: MOR03077, MOR03079, MOR03080, and MOR03100 and two murine antibodies: OKT10 and IB4). […] Moreover, the prior art antibodies have poor ADCC as well as CDC activity.

[5] = Phase 1 study in healthy subjects (AB79-101): safety; type: in vivo, human
Experimental: as §1, §2

[6] = AB79-2001 phase 1b study in SLE: safety; type: in vivo, human; conditions: 15 patients, data still blinded (AB79 or placebo)
Text: AB79-2001 is a double-blind, placebo-controlled phase 1b study in patients with moderate to severe SLE. As of the clinical data cutoff, a total of 15 patients had received at least 1 dose of AB79 or placebo. Data is still blinded for this study. No new safety concerns have been identified.

Q: Which results are given for “AB79: anti-CD38 monoclonal IgG1 antibody; heavy chain SEQ ID NO:11, light chain SEQ ID NO:12”?
A: reduction of levels of circulating plasmablasts in peripheral blood [1]: dose-dependent manner; maximum observed concentration (Cmax) [2]: 100 ng/mL; preliminary objective response rate (ORR) [3]: 100%; Kd [4]: 5.4 nM; serious adverse events (SAEs) ([5]; 74 healthy subjects, single IV or SC dose escalation): no serious adverse events; neutrophil, lymphocyte, monocyte, RBC and platelet counts ([5]; healthy subjects, all dose cohorts): remained within normal ranges; patients with a Grade 3 or higher TEAE or AEs leading to study drug discontinuation [6]: No patient
